# Results from patent US20150344570A1 (published 2015).
# T1: FcgRIIaR (human, UniProt P12318 34-217)
# T1 construct: extracellular domain; also called FcγRIIa R; FcgRIIa type R; not shown: His tag attached to the C terminus
# T1 sequence (looked up): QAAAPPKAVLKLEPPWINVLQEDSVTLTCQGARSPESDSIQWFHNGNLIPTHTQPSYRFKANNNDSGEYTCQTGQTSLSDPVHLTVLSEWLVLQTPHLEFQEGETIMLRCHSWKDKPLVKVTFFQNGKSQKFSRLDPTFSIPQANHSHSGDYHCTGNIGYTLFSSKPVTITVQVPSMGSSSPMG
# T2: FcgRIIaH (human, UniProt P12318 34-217)
# T2 construct: extracellular domain; also called FcγRIIa H; FcgRIIa type H; not shown: His tag attached to the C terminus
# T2 sequence (looked up): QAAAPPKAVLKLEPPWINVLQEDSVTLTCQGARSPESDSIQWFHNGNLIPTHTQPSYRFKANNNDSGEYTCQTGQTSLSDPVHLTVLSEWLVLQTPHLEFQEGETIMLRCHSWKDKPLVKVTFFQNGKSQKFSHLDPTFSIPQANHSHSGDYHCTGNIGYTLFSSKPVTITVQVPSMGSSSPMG
# T3: FcgRIIb (human, UniProt P31994 43-217)
# T3 construct: extracellular domain; also called FcγRIIb; 2b; not shown: His tag attached to the C terminus
# T3 sequence (looked up): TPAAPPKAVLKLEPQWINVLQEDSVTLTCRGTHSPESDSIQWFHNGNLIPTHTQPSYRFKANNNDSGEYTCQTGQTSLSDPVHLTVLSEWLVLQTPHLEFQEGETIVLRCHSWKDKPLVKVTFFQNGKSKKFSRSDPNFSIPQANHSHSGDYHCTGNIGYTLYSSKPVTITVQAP
# Tests used:
# FcγRIIb = FcγRIIb (human, UniProt P31994 43-217); experiment: SPR (Biacore), KD
# FcγRIa = FcγRIa (human, UniProt P12314 16-292); experiment: SPR (Biacore 4000)
# FcgRIIaR = target: T1, FcgRIIaR; experiment: SPR (Biacore); KD of H240-Kn033/H240-Hl033/L73-k0 divided by KD of the variant
# Procedure: (§1) Binding of the produced variants to FcgRIa, FcgRIIaR, FcgRIIaH, FcgRIIb, FcgRIIIaF, and FcgRIIIaV was measured according to the method of Reference Example 8.
# (§2) Analysis of interaction between objective antibody and the FcγR was carried out using Biacore T100 (GE Healthcare), Biacore T200, Biacore A100, and Biacore 4000. HBS-EP+ (GE Healthcare) was used as the running buffer, and the measurement temperature was set to 25° C. Chips produced by immobilizing the antigen peptide by the amine coupling method to a Series S sensor Chip CM5 (GE Healthcare), chips produced by allowing preliminarily biotinylated antigen peptides to interact with and immobilize onto a Series S Sensor Chip SA (certified) (GE Healthcare), chips produced by immobilizing Protein L (ACTIGEN, BioVision) to Series S Sencor Chip CM5 (GE Healthcare), or chips produced by immobilizing Protein A/G (Thermo Scientific) to Series S Sencor Chip CM5 (GE Healthcare) were used. Antibodies of interest were captured onto these chips, and allowed to interact to each FcγR diluted with running buffer. To regenerate and repeatedly use the chip, the antibodies captured onto the chip were washed off by reacting 10 mM glycine-HCl, pH 1.5.
# FcgRIIaH = target: T2, FcgRIIaH; experiment: as above
# Procedure: as §1, §2
# FcgRIIb = target: T3, FcgRIIb; experiment: as above
# Procedure: as §1, §2
# FcgRIIIaF = target: T4, FcgRIIIaF (human, UniProt P08637 17-208); experiment: as above
# T4 construct: extracellular domain; also called FcγRIIIa F; 3aF; not shown: His tag attached to the C terminus
# Procedure: as §1, §2
# FcgRIIIaV = target: T5, FcgRIIIaV (human, UniProt P08637 17-208); experiment: as above
# T5 construct: extracellular domain; also called FcγRIIIa V; 3aV; not shown: His tag attached to the C terminus
# Procedure: as §1, §2
# T4 sequence (P08637 17-208): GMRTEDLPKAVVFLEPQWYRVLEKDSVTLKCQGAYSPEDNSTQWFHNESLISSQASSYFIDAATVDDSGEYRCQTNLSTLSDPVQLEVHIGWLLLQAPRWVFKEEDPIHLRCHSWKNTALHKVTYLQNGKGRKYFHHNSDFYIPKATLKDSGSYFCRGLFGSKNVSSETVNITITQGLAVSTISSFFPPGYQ
# T5 sequence (P08637 17-208 F176V limits assumed): as the sequence (P08637 17-208) above, with F160V counted along it
# Sequence of FcγRIa (P12314 16-292): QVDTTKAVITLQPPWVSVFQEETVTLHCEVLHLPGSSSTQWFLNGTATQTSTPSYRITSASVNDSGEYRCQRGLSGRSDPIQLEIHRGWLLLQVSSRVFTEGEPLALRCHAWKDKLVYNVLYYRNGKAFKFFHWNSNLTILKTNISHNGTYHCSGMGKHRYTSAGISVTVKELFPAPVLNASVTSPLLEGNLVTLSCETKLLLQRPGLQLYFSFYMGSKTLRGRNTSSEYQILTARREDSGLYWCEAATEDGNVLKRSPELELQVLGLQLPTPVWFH
fold FcgRIIb-binding activity against native IgG1 (FcγRIIb) [times],koff (FcγRIa) [s⁻¹],fold 2aR (FcgRIIaR) [fold],fold 2aH (FcgRIIaH) [fold],fold 2b (FcgRIIb) [fold],fold 3aF (FcgRIIIaF) [fold],fold 3aV (FcgRIIIaV) [fold],Binder
,< 5e-05,,,,,,"H240-Kn120/H240-Hl073/L73-k0 (antibody, human IgG1, kappa, G236S introduced into H240-Hl068; also called H240-Kn120/H240-HI073/L73-k0) heavy 1: QDQLVQSGAEVKKPGASVKVSCKASGFNIKDTYIQWVRQAPGQGLEWMGRIDPLRKQTKYREKFEGRVTITADTSTNTAYMELSSLRSEDTAVYYCVRSGREFDYWGQGTLVTVSSASTKGPSVFPLAPSSKSTSGGTAALGCLVKDYFPEPVTVSWNSGALTSGVHTFPAVLQSSGLYSLSSVVTVPSSSLGTQTYICNVNHKPSNTKVDKKVEPKSCDKTHTCPPCPAPEYYWGPMVFLFPPKPKDTLMISRTPEVTCVVVDVSDEDPEVKFNWYVDGVEVHNAKTKPREEQYNATYRVVSVLTVLHQDWLNGKEYKCKVSNKDLPAPIEKTISKAKGQPREPQVCTLPPSRDELTKNQVSLWCLVKGFYPSDIAVEWESNGQPENNYKTTPPVLDSDGSFFLYSKLTVDKSRWQQGNVFSCSVMHEALHNHYTQKSLSLSP heavy 2: QDQLVQSGAEVKKPGASVKVSCKASGFNIKDTYIQWVRQAPGQGLEWMGRIDPLRKQTKYREKFEGRVTITADTSTNTAYMELSSLRSEDTAVYYCVRSGREFDYWGQGTLVTVSSASTKGPSVFPLAPSSKSTSGGTAALGCLVKDYFPEPVTVSWNSGALTSGVHTFPAVLQSSGLYSLSSVVTVPSSSLGTQTYICNVNHKPSNTKVDKKVEPKSCDKTHTCPPCPAPELLSGPSVFLFPPKPKDTLMISRTPEVTCVVVDVSHEEPEVKFNWYVDGVEVHNAKTKPREEQYNSTYRVVSVLTVLHQDWLNGKEYKCKVSNDALPKPIEETISKAKGQPREPQVYTLPPSRCELTKNQVSLSCAVKGFYPSDIAVEWESNGQPENNYKTTPPVLDSDGSFFLVSKLTVDKSRWQQGNVFSCSVMHEALHNHYTQKSLSLSP light: DIQMTQSPSSLSASVGDRVTITCRASQDIHKYIAWYQQKPGQAPRLLIQYTSTLQPGVPSRFSGSGSGTDYTFTISSLQPEDIATYYCLQYEQLRTFGGGTKVEIKRTVAAPSVFIFPPSDEQLKSGTASVVCLLNNFYPREAKVQWKVDNALQSGNSQESVTEQDSKDSTYSLSSTLTLSKADYEKHKVYACEVTHQGLSSPVTKSFNRGEC"
,,1.5,0.7,1.3,3.7,7,"H240-afucosyl_G1d/L73-k0 (antibody, human IgG1, kappa, afucosylated: fucose removed from the sugar chain of H240-G1d, also called afucosylated antibody) heavy: not shown light: DIQMTQSPSSLSASVGDRVTITCRASQDIHKYIAWYQQKPGQAPRLLIQYTSTLQPGVPSRFSGSGSGTDYTFTISSLQPEDIATYYCLQYEQLRTFGGGTKVEIKRTVAAPSVFIFPPSDEQLKSGTASVVCLLNNFYPREAKVQWKVDNALQSGNSQESVTEQDSKDSTYSLSSTLTLSKADYEKHKVYACEVTHQGLSSPVTKSFNRGEC"

# The remaining lines, values behind:
Binder,fold FcgRIIb-binding activity against native IgG1 (FcγRIIb) [times],koff (FcγRIa) [s⁻¹],fold 2aR (FcgRIIaR) [fold],fold 2aH (FcgRIIaH) [fold],fold 2b (FcgRIIb) [fold],fold 3aF (FcgRIIIaF) [fold],fold 3aV (FcgRIIIaV) [fold]
"H240-Kn120/H240-Hl068/L73-k0 (antibody, human IgG1, kappa, S239M introduced into H240-Kn067) heavy 1: QDQLVQSGAEVKKPGASVKVSCKASGFNIKDTYIQWVRQAPGQGLEWMGRIDPLRKQTKYREKFEGRVTITADTSTNTAYMELSSLRSEDTAVYYCVRSGREFDYWGQGTLVTVSSASTKGPSVFPLAPSSKSTSGGTAALGCLVKDYFPEPVTVSWNSGALTSGVHTFPAVLQSSGLYSLSSVVTVPSSSLGTQTYICNVNHKPSNTKVDKKVEPKSCDKTHTCPPCPAPEYYWGPMVFLFPPKPKDTLMISRTPEVTCVVVDVSDEDPEVKFNWYVDGVEVHNAKTKPREEQYNATYRVVSVLTVLHQDWLNGKEYKCKVSNKDLPAPIEKTISKAKGQPREPQVCTLPPSRDELTKNQVSLWCLVKGFYPSDIAVEWESNGQPENNYKTTPPVLDSDGSFFLYSKLTVDKSRWQQGNVFSCSVMHEALHNHYTQKSLSLSP heavy 2: QDQLVQSGAEVKKPGASVKVSCKASGFNIKDTYIQWVRQAPGQGLEWMGRIDPLRKQTKYREKFEGRVTITADTSTNTAYMELSSLRSEDTAVYYCVRSGREFDYWGQGTLVTVSSASTKGPSVFPLAPSSKSTSGGTAALGCLVKDYFPEPVTVSWNSGALTSGVHTFPAVLQSSGLYSLSSVVTVPSSSLGTQTYICNVNHKPSNTKVDKKVEPKSCDKTHTCPPCPAPELLGGPSVFLFPPKPKDTLMISRTPEVTCVVVDVSHEEPEVKFNWYVDGVEVHNAKTKPREEQYNSTYRVVSVLTVLHQDWLNGKEYKCKVSNDALPKPIEETISKAKGQPREPQVYTLPPSRCELTKNQVSLSCAVKGFYPSDIAVEWESNGQPENNYKTTPPVLDSDGSFFLVSKLTVDKSRWQQGNVFSCSVMHEALHNHYTQKSLSLSP light: DIQMTQSPSSLSASVGDRVTITCRASQDIHKYIAWYQQKPGQAPRLLIQYTSTLQPGVPSRFSGSGSGTDYTFTISSLQPEDIATYYCLQYEQLRTFGGGTKVEIKRTVAAPSVFIFPPSDEQLKSGTASVVCLLNNFYPREAKVQWKVDNALQSGNSQESVTEQDSKDSTYSLSSTLTLSKADYEKHKVYACEVTHQGLSSPVTKSFNRGEC",~50,,,,,,
"H240-Kn033/H240-Hl033/L73-k0 (antibody, human IgG1, kappa, Anti-epiregulin IgG1 with only knobs-into-holes alterations) heavy 1: not shown heavy 2: not shown light: DIQMTQSPSSLSASVGDRVTITCRASQDIHKYIAWYQQKPGQAPRLLIQYTSTLQPGVPSRFSGSGSGTDYTFTISSLQPEDIATYYCLQYEQLRTFGGGTKVEIKRTVAAPSVFIFPPSDEQLKSGTASVVCLLNNFYPREAKVQWKVDNALQSGNSQESVTEQDSKDSTYSLSSTLTLSKADYEKHKVYACEVTHQGLSSPVTKSFNRGEC",,,1,1,1,1,1
